Assay results published in paper doi:10.1101/203372.

Target: HDAC6-EGFP WT (full-length human histone deacetylase 6 fused to EGFP) (human) (UniProt Q9UBN7)
Test: MST

Chain of HDAC6-EGFP WT (full-length human histone deacetylase 6 fused to EGFP) (human) (Q9UBN7 whole entry, the tested form may be a part): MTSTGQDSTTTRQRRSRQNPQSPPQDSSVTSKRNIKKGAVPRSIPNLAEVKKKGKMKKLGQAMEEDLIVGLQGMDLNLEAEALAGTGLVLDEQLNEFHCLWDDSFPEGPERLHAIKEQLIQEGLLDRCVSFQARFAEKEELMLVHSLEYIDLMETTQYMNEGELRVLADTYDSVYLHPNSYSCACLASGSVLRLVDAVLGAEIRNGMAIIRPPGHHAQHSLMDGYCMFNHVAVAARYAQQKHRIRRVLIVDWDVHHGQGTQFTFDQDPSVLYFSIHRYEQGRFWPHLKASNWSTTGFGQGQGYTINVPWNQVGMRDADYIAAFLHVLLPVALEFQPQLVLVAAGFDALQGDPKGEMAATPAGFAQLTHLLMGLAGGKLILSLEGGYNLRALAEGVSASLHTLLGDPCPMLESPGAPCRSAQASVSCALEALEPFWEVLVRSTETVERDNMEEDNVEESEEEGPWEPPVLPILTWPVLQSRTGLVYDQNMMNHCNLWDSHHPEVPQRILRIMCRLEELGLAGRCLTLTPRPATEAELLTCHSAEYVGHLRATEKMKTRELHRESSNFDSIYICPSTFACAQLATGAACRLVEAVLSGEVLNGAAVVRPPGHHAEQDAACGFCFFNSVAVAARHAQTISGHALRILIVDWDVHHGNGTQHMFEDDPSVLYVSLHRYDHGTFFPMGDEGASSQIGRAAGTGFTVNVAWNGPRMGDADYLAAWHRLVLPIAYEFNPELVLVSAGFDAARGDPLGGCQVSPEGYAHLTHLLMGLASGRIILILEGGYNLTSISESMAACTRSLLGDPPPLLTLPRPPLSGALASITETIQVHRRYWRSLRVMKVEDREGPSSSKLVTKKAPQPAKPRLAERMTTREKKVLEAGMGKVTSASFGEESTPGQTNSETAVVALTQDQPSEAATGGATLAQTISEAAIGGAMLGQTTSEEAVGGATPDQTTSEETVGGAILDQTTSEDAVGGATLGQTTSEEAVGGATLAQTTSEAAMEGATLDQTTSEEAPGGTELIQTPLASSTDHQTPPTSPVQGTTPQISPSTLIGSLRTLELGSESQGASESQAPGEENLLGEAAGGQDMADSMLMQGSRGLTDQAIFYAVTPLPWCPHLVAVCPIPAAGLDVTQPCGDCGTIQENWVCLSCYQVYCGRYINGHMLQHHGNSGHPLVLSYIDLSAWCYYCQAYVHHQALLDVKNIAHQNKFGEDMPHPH
Chain of NEDD8, human, recombinant, His-tag (Q15843 1-76): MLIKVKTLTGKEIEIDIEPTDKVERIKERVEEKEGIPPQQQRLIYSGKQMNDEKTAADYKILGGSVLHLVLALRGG

Substance | fold higher affinity than mono-Ub [fold] | fold lower affinity than mono-Ub [fold]
K63-linked tetra-Ub (from UniProt P0CG48) | 4 | –
NEDD8, human, recombinant, His-tag (from UniProt Q15843 1-76) (natural protein) | – | 50
